Experimental findings from paper PMC7585440, “Sclerostin inhibits Wnt signaling through tandem interaction with two LRP6 ectodomains” (Nature Communications, 2020) are described below.

What is called Kd is the free concentration of one partner at which half of the binding sites on the other are occupied at equilibrium, for simple one-to-one binding. Low values mean a tighter complex, high ones a looser complex.

The target of experiment [1] is T1, human LRP6 E1E2 with a C-terminal 10× His tag, labeled with the dye NT-647 (human, UniProt O75581 21-630, dye NT-647 (Monolith NT Protein Labeling kit)).
T1 construct: Low-density lipoprotein receptor-related protein 6 (LRP6), human, ectodomains E1 and E2; the limits P21-P630 are printed for the co-expression construct; the MST construct was cloned into another vector (pAcGP67A); also called Labeled LRP6 E1E2; source: High Five insect cells (pAcGP67A), purified (Ni-NTA, HiTrapQ, SEC), no tag cleavage; not shown: His10, C-terminal, kept
T1 sequence (looked up): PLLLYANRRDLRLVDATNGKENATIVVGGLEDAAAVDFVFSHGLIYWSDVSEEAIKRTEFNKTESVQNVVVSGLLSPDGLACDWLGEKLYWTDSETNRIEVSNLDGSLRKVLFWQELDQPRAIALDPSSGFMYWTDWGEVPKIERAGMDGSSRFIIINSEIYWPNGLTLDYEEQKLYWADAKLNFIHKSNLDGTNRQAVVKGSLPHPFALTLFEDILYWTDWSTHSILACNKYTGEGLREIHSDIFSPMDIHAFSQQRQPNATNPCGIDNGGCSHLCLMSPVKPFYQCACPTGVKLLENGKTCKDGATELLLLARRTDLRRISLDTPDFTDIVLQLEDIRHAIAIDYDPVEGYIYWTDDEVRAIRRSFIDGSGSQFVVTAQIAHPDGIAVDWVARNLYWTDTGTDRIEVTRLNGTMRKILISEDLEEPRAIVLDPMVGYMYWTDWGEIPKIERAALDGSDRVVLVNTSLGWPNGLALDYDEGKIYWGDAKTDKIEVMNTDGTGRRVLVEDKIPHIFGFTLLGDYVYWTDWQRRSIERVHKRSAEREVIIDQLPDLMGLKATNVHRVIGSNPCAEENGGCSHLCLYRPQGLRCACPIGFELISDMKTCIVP
Briefly: MST; LRP6 E1E2 or E1 labeled with NT-647 at ~5 nM, unlabeled SOST proteins or peptides titrated; 20 mM Tris-Cl pH 7.0, 200 mM NaCl, 0.5 mg/ml BSA, 0.05% Tween 20; 22 °C; Monolith NT.115 Pico. The following applies: both partners purified.

In experiment [2] the target is T2, human LRP6 E1E2 (P21–P630) with a C-terminal 10× His tag (human, UniProt O75581 21-630).
T2 construct: Low-density lipoprotein receptor-related protein 6 (LRP6), human, ectodomains E1 and E2, residues P21-P630; Unlabelled form: crystal, SEC-MALS and fluorescence-SEC; An anti-His-tag antibody was used for the western blots of the fluorescence-SEC experiment; also called LRP6 ectodomains 1 and 2; source: High Five insect cells (baculovirus), secreted, purified (Ni-NTA, HiTrapQ, SEC); co-expressed …
T2 sequence (looked up): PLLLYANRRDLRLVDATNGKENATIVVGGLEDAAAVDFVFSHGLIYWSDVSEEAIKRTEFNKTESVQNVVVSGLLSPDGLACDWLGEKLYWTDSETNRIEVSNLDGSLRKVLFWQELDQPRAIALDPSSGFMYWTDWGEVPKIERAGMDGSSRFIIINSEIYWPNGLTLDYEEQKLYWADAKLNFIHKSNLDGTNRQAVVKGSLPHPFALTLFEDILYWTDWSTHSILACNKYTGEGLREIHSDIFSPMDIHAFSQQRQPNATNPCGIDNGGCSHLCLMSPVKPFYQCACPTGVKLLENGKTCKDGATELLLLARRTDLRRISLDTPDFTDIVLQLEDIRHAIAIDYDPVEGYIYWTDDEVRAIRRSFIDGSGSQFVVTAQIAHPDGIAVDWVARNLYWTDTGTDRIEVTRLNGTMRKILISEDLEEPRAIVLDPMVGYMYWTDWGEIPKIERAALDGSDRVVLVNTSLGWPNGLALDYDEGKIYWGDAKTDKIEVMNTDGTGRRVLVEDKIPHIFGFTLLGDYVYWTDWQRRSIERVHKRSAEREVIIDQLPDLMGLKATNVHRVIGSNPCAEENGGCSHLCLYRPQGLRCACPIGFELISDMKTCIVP
Description: SEC; fluorescence-SEC: purified LRP6 E1E2–Smo-SOST complex injected at 1.5, 1, 0.5 or 0.1 µM on Superdex 200 Increase 10/300 GL; 20 mM Tris pH 7.0, 200 mM NaCl; intrinsic tryptophan fluorescence; approximate KD. To be noted: both partners purified. A general note: Size exclusion chromatography separates by hydrodynamic size, large species first.

B1: human WT SOST with an N-terminal His6-SUMO tag (natural protein, UniProt Q9BQB4 24-213, looked up)
chain: QGWQAFKNDATEIIPELGEYPEPPPELENNKTMNRAENGGRPPHHPFETKDVSEYSCRELHFTRYVTDGPCRSAKPVTELVCSGQCGPARLLPNAIGRGKWWRPSGPDFRCIPDRYRAQRVQLLCPGGEAPRARKVRLVASCKCKRLTRFHNQSELKDFGTEAARPQKGRKPRPRARSAKANQAELENAY
notes: Sclerostin (SOST), human, wild type; Probably residues 24-213 (the truncated constructs begin at Q24 and the protein ends at Y213); Purified WT SOST ran as a doublet that PNGase F turned into one band (N175 likely glycosylated in part); also called Smo-SOST; SOST WT; source: High Five insect cells (pAcGP67A), purified (Ni-NTA, HiTrapQ, SEC), no tag cleavage; not shown: His6, N-terminal, kept; …
On to B1, for which the figures for the Kd in experiment [1] and in experiment [2] were 170 nM and approximately 50 nM, respectively.
